B1: AAZ32093.1: Type-III PKS enzyme from Oncidium Gower Ramsey (protein)
chain: MPSLESIKNAPKTDGFASILAIGSANPENIIEQSTYPDFFFHLTNSEHLVDLKNKFQRICDKTAIRKRHFAWNEELLTANPCLRTFMDNSLNVRQEFVIREIPKLGAQAATKAIQEWGQSKSRITHLIFSTTSGMDLPGADYQLTQILGLNPNIERVMLYHQGCFAGGTTLRLTKSLAESRKGARVLVVCAETTSALTFRAPSEEHQDDLVVQALFGDGASALIVGADPDEAADERASFIIVSTSQVLLSDSAGAIGGHLSEGGLIVTLHRDVPQIVSKNVGNCLKEAFTPLGISDWNSIFWVPHPGGPAILDQIEERVGLNPEKLIISRHMLAEYGNMLGVSVHFALDEMRKRSAKEGKATTGEGLDWGVLLGIGPGITVETVVLHSVRI
modifications: Oncidium hybrid cultivar; (1)..(391) AAZ32093.1
notes: Type-III PKS enzyme from Oncidium Gower Ramsey
B2: XP_020704102.1: Type-III PKS enzyme from Dendrobium catenatum (protein, listed as Dendrobium catenatum)
chain: MPSLESIKKAPRADGFASILAIGRANPENFIEQSAYPDLFFRITKSEHLVDLKNKFKRICDKTAIRKRHFVWTEEFITANPCFSTFMEKSLNIRQEVAIREIPKLGAEAAAKAIQEWGQPKSRITHLIFCTRSGMGLPGPDYQLTQILGLNPNVERVMIYQQGCFAGGTTLRLAKCLAESHKGARVLVVCAETSTVLFRAPSMEHQEDLVTQALFADGASALIVGADPDETADEHASFVIVSTSQVLLPESAGAIGGHVSEGGFLPMIHRDVPQIVSKNIGKCLEEAFTPLGIMDWNSIFWVPHPGGRAILDQLDERVGLKPEKLFISRHVLKEYGNMSSASVHFALDEMRKWSAKEGTTGEGLEWGVLFGFGPGVTVDTVVLRSVPI
modifications: (1)..(388) XP_020704102.1
B3: PKU71375.1: Type-III PKS enzyme from Dendrobium catenatum (protein, listed as Dendrobium catenatum)
chain: MAQRADGSASILAIGKATPENFLEQSTYPDYFFRVTNSQHLIDLKKKFQRICDKTSIRKRHFILNEELITKNPCLSKFMENSINTRLEIYAKEIQKLAVEAATKAIQEWGQPKSCITHLIFSTLSDPGLPCGDYHLLQTLGLSPNIERVVILQHGCFAGGTMLRLAKCLAESHKGARVLVVSAETTTMLFRGPSEEHQEDLITQALFADGASALIVGVNPNETIGERASFVITSASQVILPNSSHAITGHLSEGGIKATIHKDVPNLLSNNIGKILEEAFTPLGISNWNSIFWVVHPGGRAILDQLEERVGLKPEKLMISRHVLAEYGNLMGVCVHFVLDEMRKRSIDEGNTTTGEGLEWGVLLGFGLGVTIETIVLQSVSL
modifications: (1)..(382) PKU71375.1
B4: AFU07709.1: Type-III PKS enzyme from Paphiopedilum armeniacum (protein, listed as Paphiopedilum armeniacum)
chain: MPGLENRKKVEAPKREEGLATIMAIGRANPPNAMEQSTFPDFYFRVTNSEHMVGLKKKFQRICEKTAIRRRHFVWNEEILNANPCMCTHMEPSLNVGQKIVVAEIPKLGAEAASRAIEVWGQPKSRITHLIFCTTSSMDLLGADYKITRILGLNLNVQRGMLYQQGCFAGGTVLRLAKCFTESQKGTRVLVVCSENAIILVRASSEDYQDDLVTQALFADGASALIVGEDPDEEAKERPIFTIISTTHVILPDSDGAIGGHLGEGGLMATLQRDVPFIISKNVNTCLEESFAPLVISDWNSVFWAPHSGGRAILDQVEERAGLKPEKLWASRHVLAKYGNMSSVCVHFVLDEIRKRSTKEGKTTTGEGFDWGVLFGFGLGLTVETVILRSVPLN
modifications: (1)..(394) AFU07709.1
B5: AFU07710.1: Type-III PKS enzyme from Paphiopedilum × areeanum (protein)
chain: MPGLENRKKVEVPKRAKDLATIMAIGRANPPNAVEQSTFPDFYFRVTNNEHLVGLMKKFQCICEKTVIRRRHFVWDEEILNANPCLRTHMEPSFNVRQKIAVAEIPKMGAEAASRAIKEWGQPKSRITYLIFYTMSGMDLPVTDYKLTRILNLNLNVYQVMLYQWDCIAGGTILCWAKCSAESQKGTRVLVVSSETTTVLVRAPSEDYHDDLVTQDLFGDGASALIVGADPDEEAKERPIFTIVSTSQVVLPDSDGVIGGHLSEGGLMATLHRDVALIISKNVSKCLEEAFVTLGISDWNSIFWAPHPCRRAILDQVEERVGLKPEKLWASRHVLAEFGNMTSVCVHFVLDEIHNRSTQGKTTTGEGFDWGVLFGFGPGLIVETVILRSVPLN
modifications: Paphiopedilum x areeanum; (1)..(393) AFU07710.1
B6: CAA10514.1: Type-III PKS enzyme from Bromheadia finlaysoniana (protein, listed as Bromheadia finlaysoniana)
chain: MASQVSPPSINMAPKADGFASILAIGRANPKNFIEQSTFPDFFFRVTNTEHMVDLKKKFQRICDKTSIRKRHFIWNEELLTANPSLCTFMGNSLNLRHEVAVREIPKLGAEAATKAIQEWGQPKSFITHLVFCTTSGMDLPGADYQLTQILGLNLDIERVMLHQQGCFLGGTTLRLAKYLAESRKGARVLVVCAETTTEFFRAPSEEHQEDLVTQSLFGDGASALIVGADPHEGARERASFILVSSSQVLLANSAHAITGHVSEGGIKATLHRDVPQIISNNLGKCLEEAFTPLGISDWNSIFWVLHPGGRAILDQVEEKMGLEPEKLLISRHVLLEYGNMSSVCVHFALDEMRKRSSNEGKATTGEGLEWGVLFGFGPGLTIETVVLRSVSIS
modifications: (1)..(394) CAA10514.1
B7: PKA56805.1: Type-III PKS enzyme from Apostasia shenzhenica (protein, listed as Apostasia shenzhenica)
chain: MPGVEAVAQNISPARSDGLAAILAIGRANPPNIVEQSSFADLYFRLHNSEHLVDLKKKLQRICDRTAIRKRHFVWDEELLMANPCLRTVTEPSLNARQKVAITEIPKLGAAAATNAIAEWGRPKSDITHLIFCTTSGMDLPGADYQLIRLLGLNDNIQRIMLYQQGCFAGGTVLRLAKVLAESRRSARVLIVCAETTTVLVRSPSVENQDDLVTQALFADGASALIVGADPNAGEKPVFSVFSTSQVLLPDSDGAIGGHVGENGLTATLHRDVPAVISKNVGKCLEEAFTPLGISDWNSIFWAAHPGGRAILDQVEERVGLKPEKMWASRHVLAEYGNMSSVSVHFALDEIRRRSAKEGKATTGDGFEWGVLFGFGPGLTVETVVLRSAPISA
modifications: (1)..(393) PKA56805.1
B8: A0A0D9WZ61: Type-III PKS enzyme from Leersia perrieri (protein, listed as Leersia perrieri)
chain: MAPVPANGAATATATTQEIRRAQRADGPATVLAIGTANPETYVSQDEYADYYFRITKSEHLPELKDKLRRICNKSGIDKRFMYVNEDVMEAHPEFADRNQSSLNARVEIASKAVPELAAAASAKAIAEWGRPATDITHLIFSTYSGVKAPSGDRLLASLLGLRPNVSRTTLSLHGCYGGGRALQLAKELAENNRGARVLVACAEMTLIAFYGPEVGCNDTIVGQALFGDGSGAVIVGADPVDAAGERPLFEMAFASQTTVPDSEGAITMQHTKGGMDYHIGSGIPEMLAGNIERCLADAFDSIGVAADWKDLFWAVHPGGRRILDLIEEALGLDNGAMASRQVLREFGNMSGTTVIFVLNELRRRFKANGAEGADWGALMAFGPGVTIETMLLRVAAGLKGN
modifications: (1)..(402) ProtKB - A0A0D9WZ61

System: E. coli derivative strain which overexpressed an acyl-CoA synthetase (fadD) gene and expressed an olivetolic acid cyclase (OAC) from Cannabis sativa
Assay: OL, OLA and PDAL production in E. coli from plasmid-expressed Type-III PKS genes
Type: cell-based
Details: gene on plasmid; for Total: OL + OLA + PDAL; for OL / OLA / PDAL: constitutive promoter, culture spiked with 4 mM hexanoic acid
Description: To test olivetolic acid production in E. coli, strains comprising a putative OLS gene and an OAC gene from C. sativa were inoculated in multi-well plates containing LB supplemented with 1% glucose and appropriate concentrations of antibiotics. After 6 hours of cultivation at 32° C., the cells were transferred with a 10% inoculum to a P-limited seed medium (see Table 2) and cultivated for ˜18 hours at 32° ° C. to reach an OD of 2.0-4.0. The cultures were transferred with a 20% inoculum in a P-minimal medium (see Table 3) supplemented with 2% glucose and appropriate concentrations of antibiotics. After 3 hours of cultivation at 32° C., the culture was spiked with 4 mM hexanoic acid (˜OD 1.5-2.0). The resulting cultures were then harvested at either 3 hours or 21 hours post hexanoic acid spike; a final OD was taken. 300 μL of butyl acetate containing 500 mg/L undecanoic acid was added to each multi-well plate. The plates were then vortexed for 30 minutes at 1500 rpm and centrifuged for 10 minutes at 4500 rpm. 50 μL of organic layer was transferred to a 96-well plate and derivatized with 50 μL of N,O-Bis(trimethylsilyl)trifluoroacetamide (BSTFA). The plate was then incubated at room temperature for 2 hours to allow for complete derivatization. The samples were then run on GC-FID for analytical quantification of olivetolic acid (OLA), olivetol (OL), PDAL, and hexanoic acid.
Olivetol, PDAL, OLA, HTAL, CBGA and combinations thereof were analyzed by LCMS or LCMS/MS methods using C18 reversed phase chromatography coupled to either EXACTIVE™ (ThermoFisher) or QTRAP® 4500 (Sciex) mass spectrometers.
For reversed phase LCMS, compounds were identified by their LC retention times and MRM transitions specific to the compounds. LCMS/MS analysis was conducted on a Shimadzu UHPLC system coupled with AB Sciex QTRAP 4500 mass spectrometer. Agilent Eclipse XDB C18 column (4.6×3.0 mm, 1.8 μm) was used with a 1-min gradient elution at 1 mL/min using water containing 0.1% ammonia acetate as mobile phase A and 90% methanol containing 0.1% ammonia acetate as mobile phase B. The LC column temperature was maintained at 45° C. Negative ionization mode was used for all the analytes.
The genes for 20 Type-III PKS enzymes were codon optimized for E. coli and cloned under control of a constitutive promoter into an expression vector (p15a replicon, carbenicillin resistance marker). The 20 plasmids were transformed into an E. coli derivative strain which overexpressed an acyl-CoA synthetase (fadD) gene and expressed an olivetolic acid cyclase (OAC) from Cannabis sativa.
The in vivo assay procedure and analytical methods were performed as described above.

Molecule | Total | OL | OLA | PDAL
B1 | 16 µM | 16 µM | 0 µM | 0 µM
B2 | 148 µM | 26 µM | 19 µM | 102 µM
B3 | 0 µM | 0 µM | 0 µM | 0 µM
B4 | 0 µM | 0 µM | 0 µM | 0 µM
B5 | 0 µM | 0 µM | 0 µM | 0 µM
B6 | 61 µM | 0 µM | 0 µM | 61 µM
B7 | 37 µM | 27 µM | 10 µM | 0 µM
B8 | 34 µM | 34 µM | 0 µM | 0 µM

Source: US20240240160A1, “NOVEL OLIVETOL SYNTHASES FOR C[…]” (priority 2021, published 2024)
